US20200024362A1 (SHANGHAI BENEMAE PHARMACEUTICAL, published 2020)
Numbering of substitutions follows the chain as printed. Where two headings read alike, the source gives them in different places.

Tests used:
[1] = target: T1, human coagulation factor XI (human, UniProt P03951 19-625); assay: capture ELISA screening of hybridomas from animals immunized with human FXI
T1 construct: Bought from Enzyme Research Laboratory (HFXI 1111); also called FXI; human FXI

human factor XIa [2] = target: T2, human factor XIa (human, UniProt P03951 19-387; P03951 388-625); assay: cell-based or functional assay
[3] = target: T1, human coagulation factor XI; assay: SPR, antibody captured on sensor chip, FXI flowed
Protocol: (§1) The interaction of the antibodies with FXI was determined by the SPR assay on a Biacore T200 system (Biacore, GE Healthcare). Briefly, human IgG capture antibody (Biacore, GE Healthcare) was pre-immobilized on a CM5 sensor chip (GE Healthcare), and test antibodies were captured by flowing through the chip. The final amount of the test antibodies captured was adjusted to an equal amount of 15 response units (RU) by adjusting the capture time. Then, antigen FXI was allowed to flow through the chip for 180 s for association and then for 1200 s for dissociation. […] The data were collected and the affinities between the test antibodies and FXI were analyzed using the Biacore Evaluation Software.
(§2) The test antibodies were captured on a sensor chip, and then indicated concentrations of FXI were allowed to flow through the chip.

human factor XIa [4] = target: T2, human factor XIa; assay: SPR, antibody captured on sensor chip, FXIa flowed
human factor XIa [5] = target: T2, human factor XIa; assay: apparent Ki, inhibition of FXIa (5 nM) cleavage of chromogenic substrate S-2366
[6] = target: T1, human coagulation factor XI; assay: SPR (Biacore T200), antibody captured on anti-human IgG CM5 chip, FXI flowed
Protocol: (§3) The affinity of anti-FXI/FXIa antibodies to FXI/FXIa were determined using surface plasmon resonance (SPR) technology performed on the BIAcore T200 instrument. […] These antibodies were captured onto a Biacore CM5 sensor chip that was pre-immobilized with an anti-human IgG antibody.
(§4) Then different concentrations of the purified antigen FXI or FXIa (0.005-1 μg/mL) were allowed to flow through the CM5 chip for 180 s for association with the anti-FXI/FXIa antibody, followed by a time of 1800 s for dissociation. The binding data was collected and the affinity between FXI/FXIa and the test antibodies was analyzed using the Biacore Evaluation Software provided by GE Healthcare.

human factor XIa [7] = target: T2, human factor XIa; assay: SPR (Biacore T200), antibody captured on anti-human IgG CM5 chip, FXIa flowed
Protocol: as §3, §4

human factor XIa [8] = target: T2, human factor XIa; assay: SPR (Biacore T200), antibody captured on sensor chip, FXIa 0.063 to 6.25 nM flowed
[9] = target: T1, human coagulation factor XI; assay: SPR (Biacore T200), antibody captured on anti-human IgG CM5 chip, FXI 0.063 to 6.25 nM flowed
Protocol: as §1, §2

human factor XIa [10] = target: T2, human factor XIa; assay: cell-based or functional assay; remark: listed apart in the source
human factor XIa [11] = target: T2, human factor XIa; assay: SPR (Biacore T200), antibody captured on sensor chip, FXIa 0.063 to 6.25 nM flowed; remark: listed apart in the source
[12] = target: T1, human coagulation factor XI; assay: SPR (Biacore T200), antibody captured on anti-human IgG CM5 chip, FXI 0.063 to 6.25 nM flowed; remark: listed apart in the source
Protocol: as §1, §2

B1: 42A5 (antibody, V domains shown)
VH: QVQLKESGPGLVQPSQTLSLTCTVSGFSLTSYHLHWIRQPPGKGLEWMGLMWRDGDTSYNSRLKSRLSITRDTSKSQVFLKMSGLQTEDTATYYCARGMTLATPFLYWGQGTLVTVSS
VL: DVVLTQTPGSLSVTLGDPASMSCRSSQSLESSDGNTYLEWYLQKSGQSPQLLIYGVSNRFSGVPDRFAGSGSGTDFTLKISRVEPEDLGVYYCFQATRDPFTFGSGTKLEIN
notes: Hybridoma monoclonal antibody
B1: binds [1].

B2: h-42A5 (antibody, V domains shown)
VH: QVTLKESGPVLVKPTETLTLTCTVSGFSLTSYHLHWIRQPPGKALEWMGLMWRDGDTSYNSRLKSRLTISRDTSKSQVVLTMTNMDPVDTATYYCARGMTLATPFLYWGQGTLVTVSS
VL: DVVLTQTPLSLSVTPGQPASISCRSSQSLESSDGNTYLEWYLQKPGQSPQLLIYGVSNRFSGVPDRFSGSGSGTDFTLKISRVEAEDLGVYYCFQATRDPFTFGQGTKLEIKR
notes: Humanized antibody in human IgG4 form; also called humanized 42A5
B2 was tested, and the “IC50 (read off the curve)” value (human factor XIa [2]) was roughly 5000 pM, the Kd [3] was 36 pM and the Kd (human factor XIa [4]) was 8.1 pM. For the same binder, the Ki (human factor XIa [5]) was 1430 pM, the Kd [6] was 35.7 pM and the Kd (human factor XIa [7]) was 8.14 pM. The koff (human factor XIa [8]) was 1.38e-05 s⁻¹, the kon (human factor XIa [8]) was 1.69e+06 M⁻¹ s⁻¹ and the koff [9] was 4.07e-05 s⁻¹. For the same binder, the kon [9] was 1.14e+06 M⁻¹ s⁻¹.

B3: h-34F8 (antibody, V domains shown)
VH: QVQLQESGPGLVKPSETLSLTCTVSGFSLTTYHVHWVRQPPGKGLEWIGIMWRDGDTYYNSSLKSRVTISRDTSKNQVSLKLSSVTAADTAVYFCARGGTLTTPFTYWGQGTLVTVSS
VL: B2 VL with S12P, Q17E, S32R, L51V, I53L, F60L, L88V, R98H, D99G
notes: Humanized antibody in human IgG4 form; also called humanized 34F8
In the case of B3, the Ki (human factor XIa [5]) is reported as 2080 pM, the Kd [6] is reported as 19.5 pM and the Kd (human factor XIa [7]) is reported as 3.85 pM.

B4: 13F4 (antibody, V domains shown)
VH: EVQLKESGPGLVQPSQTLSLTCTVSGFSLTDYSVHWVRQPPGKGLEWMGVMWSGGSTAYNPALTSRLTISRDTSKSQVFLKMNSLQTEDTAIYYCTRAPFNNWGNWLPYWGQGTLVTVSS
VL: QFTLTQPKSVSGSLRSTITIPCERSSGDIGDSYVSWYQQHLGRPPINVIYADDQRPSEVSARFSGSIDSSSNSASLTITNLQMDDEADYFCQSYDTYMDVVFGGGTKLNVL
notes: Hybridoma monoclonal antibody
B4: binds [1].

B5: 7C9 (antibody, V domains shown)
VH: QIQLVQSGPELKKPGETVKISCKASGYIFTDYGMNWVKQAPGKGLKWMGWINTYTGEPTYADDFKGRFVFSLETSASTAYLQINNLKNEDTATFFCARRRMGYAVDYWGQGTSVTVSS
VL: DIQMTQSPSSLSASLGERVSLTCRASQDIDIRLNWLRQEPDGTIKRLIYATSSLDSGVPKRFSGSRSGSDYSLTISSLESEDFVDYYCLQYASSPFTFGSGTKLEIK
notes: Hybridoma monoclonal antibody
B5: binds [1].

B6: 21F12 (antibody, V domains shown)
VH: EVQLVESGGGLVQPGRSLKLSCVASGFTFNNHWMTWIRQAPGKGLEWVASITDNGGSTYYPDSVKGRFTISRDNAKSTLYLHMNSLRSEDTATYYCTRDRYDSDGYYYVRYYVVDAWGQGASVTVSS
VL: DVRMTQSPASLSASLGETVNIECLASEDIYSDLAWYQQKPGKSPQLLIYNANSLQNGVPSRFSGSGSGTQYSLKISTLQSEDVATYFCQQYSNYRRTFGGGTKLEIN
notes: Hybridoma monoclonal antibody
B6: binds [1].

B7: 42F4 (antibody, V domains shown)
VH: EVQLQESGPGLVKPSQSLSLTCSVTGYSITNHYWGWIRKFPGNKMEWIGHISNSGGTNYNPSLKSRISITRDTSKNQFFLQLKSVTTEDTATYYCTRGSYYYSASGYFDYWGQGVLVTVSS
VL: B6 VL with V2I, Y30H, S76T, T77S, S92T, R95P, R96N, G100A
notes: Hybridoma monoclonal antibody
B7: binds [1].

B8: h-19F6 (antibody, V domains shown)
VH: EVQLVESGGGLVQPGRSLRLSCTASGFTFSKYAMSWVRQAPGKGLEWVSAINYDGSTTYYADSVKGRFTLSRDNSKNTLYLQMNSLRAEDTAVYYCARHPFNNFGIWFAYWGQGTLVTVS
VL: QFQLTQPSSVSASVGDRVTITCERSSGDIGDSYVSWYQQKPGQPPKNVIYADDQRPSGVPDRFSGSIDGSGNSASLTISSLQAEDAADYFCQSYDSNIDFNPVFGGGTKLEVK
notes: Humanized rat antibody in human IgG4 form (variable regions linked to human IgG4 Fc domain, expressed in CHO cells); also called humanized 19F6
For B8, the “IC50 (read off the curve)” value (human factor XIa [10]) was roughly 3000 pM, the Kd [3] was 22 pM and the Kd (human factor XIa [4]) was 26 pM. It also gave a Ki (human factor XIa [5]) of 670 pM, a Kd [6] of 22.2 pM and a Kd (human factor XIa [7]) of 25.8 pM. It also gave a koff (human factor XIa [11]) of 8.36e-05 s⁻¹, a kon (human factor XIa [11]) of 3.24e+06 M⁻¹ s⁻¹ and a koff [12] of 5.88e-05 s⁻¹. The kon [12] was 2.65e+06 M⁻¹ s⁻¹.

B9: 19F6 (antibody, V domains shown)
VH: EVQLVESGGGLVQPGRSLRLSCTASGFTFSKYVMAWVRQAPTKGLEWVASINYDGSTTYYRDSVQGRFTLSRDNAKTTLYLQMDSLRSEDTATYYCARHPFNNFGIWFAYWGQGTLVTVSS
VL: QFTLTQPKSVSGSLRSTITIPCERSSGDIGDSYVSWYQQHLGRPPINVIYADDQRPSEVSDRFSGSIDTSSNSASLTITNLQMDDAADYFCQSYDSNIDFNPVFGGGTKLTVL
notes: Hybridoma monoclonal antibody (rat, immunized with human FXI)
B9: binds [1].

B10: 34F8 (antibody, V domains shown)
VH: QVQLKESGPGLVQPSQTLSLTCTVSGFSLTTYHVHWVRQPPGKGLEWMGIMWRDGDTSYNSVLKSRLSISRDISKSQVFLKMSSLQTEDTATYFCARGGTLTTPFTYWGQGTLVTVSS
VL: DVVLTQTPGSLSVTLGQQVSISCRSSQSLESRDGNTYLEWYLQKPGQSPQVLLYGVSNRLSGVPDRFLGRGSGADFTLKISRVEPEDLGVYYCFQATHGPFTFGSGTKLEMK
notes: Hybridoma monoclonal antibody
B10: binds [1].

B11: 38E4 (antibody, V domains shown)
VH: EVQLQESGPGLVKPSQSLSLTCSVSGFSITNNYWGWIRKFPRNKMEWIGHISYSGSTNYNPSLKSRISITRDSSKSQFFLQLNSLTTEDTATYYCARGSYYYSASGYFDYWGQGITVTVSS
VL: DIRMTQSPASLSASLGETVNIECLASEDIYSDLAWYQQKPGKSPQLLIYNANSVQNGVPSRFSGSGSGTQYSLKINSLQSEDVATYFCQQFNSYPNTFGAGTKLEIK
notes: Hybridoma monoclonal antibody
B11: binds [1].

B12: 45H1 (antibody, V domains shown)
VH: B7 VH with T21I, N31T, H32T, G56S, I69V, K75T, K83N, T96A, Q113H, L116M
VL: B11 VL with E22G, S53N, V54L, F91Y
notes: Hybridoma monoclonal antibody
B12: binds [1].

B13: 3G12 (antibody, V domains shown)
VH: QVTLKESGPGILQPSQTLSLTCSFSGFSLNTPGMGVSWIRQPSGKGLEWLAHIYWDDDKRFNPSLKSRLTISKDTSRDQVFLMITSVDTADSATYFCARKGRGPFTYWGQGTLVTVSS
VL: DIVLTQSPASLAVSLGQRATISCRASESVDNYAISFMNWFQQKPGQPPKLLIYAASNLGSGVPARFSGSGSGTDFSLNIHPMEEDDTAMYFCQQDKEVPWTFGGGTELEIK
notes: Hybridoma monoclonal antibody
B13: binds [1].

B14: 5B2 (antibody, V domains shown)
VH: B13 VH with P32S, F61Y, N62K, D78N, S92T, F96Y, A98V, T106A, Y107N, S118A
VL: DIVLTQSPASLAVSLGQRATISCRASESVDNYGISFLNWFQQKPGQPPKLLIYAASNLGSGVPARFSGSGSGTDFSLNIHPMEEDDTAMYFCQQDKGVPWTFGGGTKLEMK
notes: Hybridoma monoclonal antibody
B14: binds [1].
